This passage reports Kd results from PMC7530003 (Developmental cell, 2020).

The assay addresses F-actin prepared by polymerizing β-actin (UniProt P60709 1-375). The assay is described as follows: co-sedimentation.

B1: ZO-1 ABR construct for co-sedimentation (EGFP-ZO-1(1159–1382)-Dual Strep) (domain or fragment, human, UniProt Q07157 1159-1382, looked up)
chain: EQPAPGYDTHGRLRPEAQPHPSAGPKPAESKQYFEQYSRSYEQVPPQGFTSRAGHFEPLHGAAAVPPLIPSSQHKPEALPSNTKPLPPPPTQTEEEEDPAMKPQSVLTRVKMFENKRSASLETKKDVNDTGSFKPPEVASKPSGAPIIGPKPTSQNQFSEHDKTLYRIPEPQKPQLKPPEDIVRSNHYDPEEDEEYYRKQLSYFDRRSFENKPPAHIAASHLSE
Consider B1, for which the Kd (in general, the constant that tells how readily two partners part at equilibrium) is approximately 10 µM.
